Test results published in patent US20060084162A1.

Molecular target: Y289L_C342T mutant of the catalytic domain (residues 130-402) of bovine β(1,4)-galactosyltransferase I (bovine) (UniProt P08037)
Assay: cell-based or functional assay

Chain of UniProt P08037 (P08037 other isoform, or with tags, fused parts or gaps Y289L C342T Y289L C342T): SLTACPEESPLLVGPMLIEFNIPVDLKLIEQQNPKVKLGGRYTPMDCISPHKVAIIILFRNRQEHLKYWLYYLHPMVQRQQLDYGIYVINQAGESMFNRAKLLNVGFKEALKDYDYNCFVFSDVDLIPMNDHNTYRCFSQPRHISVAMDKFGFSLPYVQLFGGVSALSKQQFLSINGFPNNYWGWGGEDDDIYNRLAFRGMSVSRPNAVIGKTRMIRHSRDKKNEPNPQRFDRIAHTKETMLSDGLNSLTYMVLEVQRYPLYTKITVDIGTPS

bovine α-Lactalbumin (Sigma) (from UniProt P00711 20-142)
GalNAc-T activity of Y289L mutant with acceptor Glc (100 mM), 500 µM UDP-GalNAc, +LA 55 µM (the value without LA in the same row is 2.6): 34.8 pmol/min/ng
GalNAc-T activity of Y289L mutant with acceptor GlcNAc (100 mM), 500 µM UDP-GalNAc, +LA 55 µM (the value without LA in the same row is 31.3): 3.3 pmol/min/ng
GalNAc-T activity of Y289L mutant with acceptor Glucosamine (100 mM), 500 µM UDP-GalNAc, +LA 55 µM (the value without LA in the same row is 1.8): 5 pmol/min/ng
